Laboratory results from the DeepSol protein solubility set.

test: soluble on expression in E. coli; label from the status in PepcDB or PDB records

| Sequence | soluble on expression in E. coli |
| --- | --- |
| MGSDKIHHHHHHMWTPDALSSEVRPYRQDVWRVVEAQSRASTMRLVDSLEEQRLLEDLIDEVKPPVPPSCRQFHYLLSTPFRYGPYPTGSRFRRAGQQDGVFYASESVETAIAELAFYRLLFFVESPGTDLPARPTDHMAFSVPCVADRLIDLTLPPLAQDEAKWVNRLDYTACQDLADIARSARIEAIRYRSVRDPDGGCNLGVLTPAALGATKPQRLETWRLFIRPTGIQVAREFPRAEREFTCADFGADPRLDPFWIRP | not soluble |
| LGGVAPEQVAYAVEQAGKRLQERDNAGVKVRPARLTDLDALEGMVAYWAGLGENLPRNRNELVRDIGSFAVAEHHGEVTGCASLYVYDSGLAEIRSLGVEAGWQSQGQGKAIVQHLVEKAREMAIKKVFVLTRVPEFFMKQDFIPTSRSLLPEKVLKDCDQCPRQH | not soluble |
| MQHKLIAFIGGGNMAQAIILGLLKQGYPAEQIIVNDPNEEKRAFFANLDVATSENNVGSAIKAEVVLLAVKPQMMAEVCSPLSAVDFSDKLLISIAAGISTERLNALIPSVKSIVRVMPNTPALVGEGMAGLFAPKNTSENYRTFAQDLLGAVGRTVWVNDETQMHAVTAASGSSPAYFFLMLEAMQKALIKMNIDEKTARELVQQSMLGAAKMVTENPQIALSTLRENVTSKGGTTAAALAVFDAQHFNQTIEQAMQACLSRSQEMETLF | soluble |
| PQKIFTPSAEIVKYTKIIAMEKLYAVFTDYEHDKVSRDEAVNKIRLDTEEHLKEKFPEVDQFEIIESFNIVAKEVFRSIILNEYKRCDGRD | soluble |
| MAETHSLGTKILIKIIRLYQIMISPFIGARCRFVPTCSCYGIEALKTHGLLKGGWLTLKRVLKCHPLNAGGFDPVPPKTNNNDEKK | not soluble |
| MGSDKIHHHHHHMLNRVHLNGLRAVETVARLGSLAAAAGELNVSVSAVSQQISRTEKQLGQALFERTASGLVLTEFGAAFATRLGAGFRELAQAVALADEASQCTLVVSVAPAFASKWLLPRLSRHFDRHPNVLLRIDASVRLANLDHSDVDIAIRLGDGEWPGVRAELLLAQEVFPVCAPSIAAKLRSIEDLAQTCAITDERSMISWDSWFKAAGVEPVTFLKGARFTDPMLCLESAIAGHGVMLAWQLLTADALTDGRLVAPFGVRAESGLGYWMVTSATKAESRKVHDFKAWIREEIETTMAQFRTLDSAA | not soluble |
| MLNSAPSETEKSETEGSETKESNLVIEDEEERKECTSVKKTEGHFTRQVDQVTKYDKDYIWSLVHSQLREGGLSQAASDLVMSYFEERYAYALEHIRFARTAEAIAEYVFNGVLSEWTKQLR | not soluble |
| GPGSMTYRYDYRPPNGGVEGSTVLFEPVAREHRATFSCGGGYGRNVMPEIPRPMVLPLVDYLDSFDKRFIEDWDEITTVQMVKLATLLNYEELLNLASAKLAVYLSEKSIEGLRAFLGVENDFKAEEEAELRKEYGRMSEEK | soluble |
| MYGKLNDLLEDLQEVLKHVNQHWQGGQKNMNKVDHHLQNVIEDIHDFMQGGGSGGKLQEMMKEFQQVLDEIKQQLQGGDNSLHNVHENIKEIFHHLEELVHR | soluble |
| SEKTQETVQRILLEPYKYLLQLPGKQVRTKLSQAFNHWLKVPEDKLQIIIEVTEMLHNASLLIDDIEDNSKLRRGFPVAHSIYGIPSVINSANYVYFLGLEKVLTLDHPDAVKLFTRQLLELHQGQGLDIYWRDNYTCPTEEEYKAMVLQKTGGLFGLAVGLMQLFSDYKEDLKPLLNTLGLFFQIRDDYANLHSKEYSENKSFCEDLTEGKFSFPTIHAIWSRPESTQVQNILRQRTENIDIKKYCVHYLEDVGSFEYTRNTLKELEAKAYKQIDARGGNPELVALVKHLSKMFKEENE | soluble |
| MMINTQEDKLVSAHDAEEFHRFFVGHDSDLQQEVTTLLTREAHLLDIQAYKAWLEHFVAPEIKYQVISRELRSTSERRYQLNDAVNLYNENYQQLKVRVEHQMDPQNWANNPKIRFTRFVTNVTAAKDKSAPEILHVRSNLILHRARRENQVDVFYATREDKWKRIEGGGIKLVERFVDYPERIPQTHNLLVFL | soluble |
| MSRTIMLIPISAGVGLTSVSMGLLRAMERKGVSVSFYKPIAQPRTGDDQPDLTSTVMSRNSDIKIGQPMSMSAAETLIGSEKMDVLLETVVERYNQINKDAEVTLIEGLVPTRKHPFANQVNAEIANTLGAEIVFVATPGTDNPTQLKERIEVACSNFGGTKNKSISGVIINKLNAPVDEAGRTRPDLSEIFDDADHAKQANLEVMQIFNTSPIRVLGCVPWSIDLIATRAIDMAKHLKAE | not soluble |
| MGSDKIHHHHHHMSTTPTTRLILETLLPHLKVAAAYAHFLQPKIAALPAKGEGNNFFSAALTDADVAIQNLVEVVLLGTFPDIRFYGEEYASSNNTKYFRATELGSKGDYLVTLDPIDGTKFYMDGHSNYQIILSILNSDDFEAVIAISPAQNIYFYALRGEGAFKGTLEMSLEACAPLHITSAKPAILLGWAMNSIGHLLKDRYQVIDIAADYSSDIQIPNLNGILTGDLSGAVIKSGKFIDVAALAFIVKEAGWIVTTLDGSTLPPLHTCQNYSLPGLVIATSKSVHQDLLKAVQSLAV | not soluble |
| MTTHLNPPQEAPYMKNATFYLLDNDTTVNGLSAVEQLVCEIAAERWRAGKRVLIACEDEKQAIRLDEALWARPAESFVPHNLAGEGPRGGAPVEIAWPQKRNSSPRDILISLRTSFADFATAFTEVVDFVPYEETLKQLARERYKAYRVAGFNLNTATWK | not soluble |
| MKAPAFTEAKLQDPIPAKIYDKNGELVKTLDNGQRHEHVNLKDVPKSMKDAVLATEDNRFYEHGALDYKRLFGAIGKNLTGGFGSEGASTLTQQVVKDAFLSQHKSIGRKAQEAYLSYRLEQEYSKDDIFQVYLNKIYYSDGVTGIKAAAKYYFNKDLKDLNLAEEAYLAGLPQVPNNYNIYDHPKAAEDRKNTVLYLMHYHKRITDKQWEDAKKIDLKANLVNRTPEERQNIDTNQDSEYNSYVNFVKSELMNNKAFKDENLGNVLQSGIKIYTNMDKDVQKTLQNDVDNGSFYKNKDQQVGATILDSKTGGLVAISGGRDFKDVVNRNQATDPHPTGSSLKPFLAYGPAIENMKWATNHAIQDESSYQVDGSTFRNYDTKSHGTVSIYDALRQSFNIPALKAWQSVKQNAGNDAPKKFAAKLGLNYEGDIGPSEVLGGSASEFSPTQLASAFAAIANGGTYNNAHSIQKVVTRDGETIEYDHTSHKAMSDYTAYMLAEMLKGTFKPYGSAYGHGVSGVNMGAKTGTGTYGAETYSQYNLPDNAAKDVWINGFTPQYTMSVWMGFSKVKQYGENSFVGHSQQEYPQFLYENVMSKISSRDGEDFKRPSSVSGSIPSINVSGSQDNNTTNRSTHGGSDTSANSSGTAQSNNNTRSQQSRNSGGLTGIFN | soluble |
| MAHHHHHHMSEGKRATSAAPEAKYNAYAEAADPDRYRVADALLFTCAEHGKACVLCVTAGKNGRSGRTAAVGATLFWLTCPNLNAIIARFEGHRCVQAVSAAMAQQPCLCDWHVQSHDVYASRAKDLLSPAQWCFFESHFLSDEQPSLHKYGNAAVSHASDMKCLHALVAQTLAGVANPVGSVVVNYILLQHKLVCEAADTGNTEQQGVEEKRLLMKATLNSTRLFSDFTTAFVRAASERPREDWHALHNVSFEVPLPEGNMWCKTAVQYMWQVDSQLAALCPDLCARALTVHVALGGPSRRRHKKHRMN | not soluble |
| MLHVAGRIEDYALIGDMQIAALVCQDGTVDWLCLPRFDSHAVFAGLLGTEEHGFWRLGPAHASDAEPPRASRRTYRGDSLILESEWDTPRGTVRVTDFMPPRDGAPQLIRIVEGVTGRVPMRSALRMRFSYGLEHHHHHH | not soluble |
| SNAEWESITPPVVDAPAVVEFFSFYCPPCYAFSQTMGVDQAIRHVLPQGSRMVKYHVSLLGPLGHELTRAWALAMVMKETDVIEKAFFTAGMVEKRLHSPDDVRRVFMSATGISRGEYDRSIKSPAVNDMVALQERLFKEYGVRGTPSVYVRGRYHINNAAFGAFSVENFRSRYAAVVRKLLAGNPDAD | soluble |
